The text below walks through data of patent US20200270588A1, “GLUCOSYL TRANSFERASE POLYPEPTIDES AND METHODS OF USE” (Syngenta Participations AG, priority 2017, published 2020).

Experiment [1] in a line: UDP luminescence plate assay of E. coli extracts, mutants within SEQ ID No: 17, 2 mM metribuzin. In kind it is biochemical, Zea mays. To be noted: 2 mM metribuzin; additional mutation in SEQ ID No: 17. How it is done:
Activities observed with metribuzin were generally lower in magnitude than seen with herbicide V in the previous examples. For example, in one plate assay run with 2 mM metribuzin using 5 ul of diluted extract of plate-grown BL21DE3 cells expressing w/t bx9 and assayed for 40 minutes (as described in Example 2) the UDP-Glo luminescence signal was ˜3.4 E6 as compared with ˜2.3E6 in the DMSO control and ˜1.7E6 in the H24A null mutant control. […] It was therefore important to assess potential improvements in the metribuzin activity of the various mutants relative to the wild type bx9 enzyme based not only on the H24A null activity control but also based upon controls with DMSO in place of metribuzin acceptor substrate. In some plate assays (using more dilute extracts) the metribuzin signals from the w/t enzyme was the same or barely greater than the DMSO control. Additionally, some mutations gave an increase in the ‘background’ UDP-glucose hydrolysis activity with just DMSO present that was the same or similar to the magnitude of the increase in signal seen with metribuzin. In these instances it is therefore uncertain from just this UDP-Glo assay method whether the specific metribuzin signal (glucosylation of metribuzin) is improved or not i.e. the signal seen with metribuzin may or may not all or to a large part be attributable to increased background hydrolysis). […] Thus the ratio of the metribuzin to DMSO signal as well as the increase in signal relative to the w/t bx9 is used to help distinguish those mutations most likely to offer the highest activity to metribuzin. A follow up assay monitored by, for example, LC MS is one method to distinguish these cases more quantitatively. The tables below summarise the results from two different sets of luminescence plate assays to detect single mutations giving improvements in the magnitude of the signal with metribuzin relative to w/t bx9 and/or the apparent specificity for metribuzin as measured by the deviation of the ratio of metribuzin to DMSO control activity from the bx9 w/t value of around unity.
A further separate screen was carried out to explore a library of additional mutations at various positions within the context of SEQ ID No: 17 for improved metribuzin activity. These were assayed, assessed and scored as above. […] These were S75K (2.5)(1.25), A236G (4.0)(1.15), A433V (3.3)(9.0) and R449C (1.8)(1.2).
A yet further and more comprehensive screen was carried out to explore saturation mutagenesis at all remaining amino acid positions within the context of SEQ ID No:17 for improved metribuzin activity. Again these were assayed, assessed and scored as above and the results of (out of the thousands screened) of the subset that were of interest are summarized in Table 16.

Experiment [2] can be described thus: UDP luminescence plate assay of E. coli extracts, mutants of SEQ ID No: 1, 2 mM metribuzin. In kind it is biochemical, Zea mays. Conditions: for RATIO of the metribuzin signal to the DMSO signal: 2 mM metribuzin vs DMSO control, same mutant; for SIGNAL: metribuzin signal of mutant divided by the signal of w/t bx9 / luminescence signal observed with 2 mM metribuzin: 2 mM metribuzin; for SIGNAL: metribuzin signal of mutant divided by the signal of w/t bx9: relative to bx9 w/t; for luminescence signal in the DMSO control: mutants of SEQ ID No: 1, DMSO in place of metribuzin (background UDP-glucose hydrolysis); for luminescence signal observed with 2 mM metribuzin: mutants of SEQ ID No: 1 in E. coli extracts, UDP luminescence. The gist of the method:
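Extracts of E. coli BL21 DE3 expressing C-terminally His-tagged SEQ ID NO:1 variants incubated with 2 mM metribuzin; UDP formed read by UDP-Glo luminescence against a UDP standard curve, with optional 95 C stop. Mutants ranked by metribuzin/DMSO signal ratio and signal increase over wild-type bx9.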

B1: S75K: additional mutation in SEQ ID No: 17 (protein)
chain: MASSRTGAGAGGRVVVFPFPFQGHFNPVMRLARALHARGLAITVFHSGALDPADYPADYRFVPVTVEADPKLLAKEDIAAIVTTLNASCDAPFRARLSALLAAEGRDSVRCVFTDVVWNAVLTASSDLGVPALGMMTASAASLRDYMAYRTLIDKGYLPVKEERKEDPVPELPPYLVKDLLRVDTSDLEEFAELLARTVTAARRASGLIFNTFPLIETDTLAEIHKALSVPVFAVAPLNKLVPTATASLHGVVQADRGCLQWLDTQQPGSVLYVSFGSFAAMDPHEFVELAWGLADSKRPFVWVVRPNLIRGFESGALPDGVEDEVRGRGIVVKWAPQEEVLAHPAVGGFLTHNGWNSTVEAISEGVPMVCCPRHGDQFGNMRYVCDVWKVGTELVGEQLERGQVKAAIDRLFGTKEGEEIKERMKEFKIAAAKGIGIGVDVDETASPRTDLTDLVDLIKSF
modifications: Mutated Zea mays Bx9 protein sequence
As for B1, in experiment [1], the “metribuzin signal relative to the SEQ ID No:17 control (first parentheses)” value turned out to be 2.5 and the “ratio of metribuzin to DMSO signal (second parentheses)” value (from here on “ratio of metribuzin to DMSO signal”) turned out to be 1.25.

B2: A433V: additional mutation in SEQ ID No: 17 (protein)
chain: MASSRTGAGAGGRVVVFPFPFQGHFNPVMRLARALHARGLAITVFHSGALDPADYPADYRFVPVTVEADPKLLASEDIAAIVTTLNASCDAPFRARLSALLAAEGRDSVRCVFTDVVWNAVLTASSDLGVPALGMMTASAASLRDYMAYRTLIDKGYLPVKEERKEDPVPELPPYLVKDLLRVDTSDLEEFAELLARTVTAARRASGLIFNTFPLIETDTLAEIHKALSVPVFAVAPLNKLVPTATASLHGVVQADRGCLQWLDTQQPGSVLYVSFGSFAAMDPHEFVELAWGLADSKRPFVWVVRPNLIRGFESGALPDGVEDEVRGRGIVVKWAPQEEVLAHPAVGGFLTHNGWNSTVEAISEGVPMVCCPRHGDQFGNMRYVCDVWKVGTELVGEQLERGQVKAAIDRLFGTKEGEEIKERMKEFKIAAVKGIGIGVDVDETASPRTDLTDLVDLIKSF
modifications: Mutated Zea mays Bx9 protein sequence
Consider B2, for which, in experiment [1], the “metribuzin signal relative to the SEQ ID No:17 control (first parentheses)” value was 3.3 and the “ratio of metribuzin to DMSO signal” value was found to be 9.0.

B3: C372L (protein)
chain: MASSRTGAGAGGRVVVFPFPFQGHFNPVMRLARALHARGLAITVFHSGALDPADYPADYRFVPVTVEADPKLLASEDIAAIVTTLNASCDAPFRARLSALLAAEGRDSVRCVFTDVSWNAVLTASSDLGVPALGMMTASAASLRDYMAYRTLIDKGYLPVKEERKEDPVPELPPYLVKDLLRVDTSDLEEFAELLARTVTAARRASGLIFNTFPLIETDTLAEIHKALSVPVFAVAPLNKLVPTATASLHGVVQADRGCLQWLDTQQPGSVLYVSFGSMAAMDPHEFVELAWGLADSKRPFVWVVRPNLIRGFESGALPDGVEDEVRGRGIVVAWAPQEEVLAHPAVGGFLTHNGWNSTVEAISEGVPMVCLPRHGDQFGNMRYVCDVWKVGTELVGEQLERGQVKAAIDRLFGTKEGEEIKERMKEFKIAAAKGIGIGVDVDETASPRTDLTDLVDLIKSF
modifications: Zea mays
For B3, in experiment [2], the “RATIO of the metribuzin signal to the DMSO signal” value (“RATIO of the metribuzin signal” for short) was found to be 1.06, the “SIGNAL: metribuzin signal of mutant divided by the signal of w/t bx9” value amounted to 1.22, the “luminescence signal in the DMSO control” value is 3.22E+05 and the “luminescence signal observed with 2 mM metribuzin” value (“luminescence signal observed” for short) was 3.41E+05.

B4: H24A (protein)
chain: MASSRTGAGAGGRVVVFPFPFQGAFNPVMRLARALHARGLAITVFHSGALDPADYPADYRFVPVTVEADPKLLASEDIAAIVTTLNASCDAPFRARLSALLAAEGRDSVRCVFTDVSWNAVLTASSDLGVPALGMMTASAASLRDYMAYRTLIDKGYLPVKEERKEDPVPELPPYLVKDLLRVDTSDLEEFAELLARTVTAARRASGLIFNTFPLIETDTLAEIHKALSVPVFAVAPLNKLVPTATASLHGVVQADRGCLQWLDTQQPGSVLYVSFGSMAAMDPHEFVELAWGLADSKRPFVWVVRPNLIRGFESGALPDGVEDEVRGRGIVVAWAPQEEVLAHPAVGGFLTHNGWNSTVEAISEGVPMVCCPRHGDQFGNMRYVCDVWKVGTELVGEQLERGQVKAAIDRLFGTKEGEEIKERMKEFKIAAAKGIGIGVDVDETASPRTDLTDLVDLIKSF
modifications: Zea mays
B4: in experiment [2], the “luminescence signal in the DMSO control” value is reported as 2.60E+05 and the “luminescence signal observed” value was determined as 2.39E+05.

B5: A334I (protein)
chain: MASSRTGAGAGGRVVVFPFPFQGHFNPVMRLARALHARGLAITVFHSGALDPADYPADYRFVPVTVEADPKLLASEDIAAIVTTLNASCDAPFRARLSALLAAEGRDSVRCVFTDVSWNAVLTASSDLGVPALGMMTASAASLRDYMAYRTLIDKGYLPVKEERKEDPVPELPPYLVKDLLRVDTSDLEEFAELLARTVTAARRASGLIFNTFPLIETDTLAEIHKALSVPVFAVAPLNKLVPTATASLHGVVQADRGCLQWLDTQQPGSVLYVSFGSMAAMDPHEFVELAWGLADSKRPFVWVVRPNLIRGFESGALPDGVEDEVRGRGIVVIWAPQEEVLAHPAVGGFLTHNGWNSTVEAISEGVPMVCCPRHGDQFGNMRYVCDVWKVGTELVGEQLERGQVKAAIDRLFGTKEGEEIKERMKEFKIAAAKGIGIGVDVDETASPRTDLTDLVDLIKSF
modifications: Zea mays
As to B5, in experiment [2], the “RATIO of the metribuzin signal” value is reported as 0.89, the “SIGNAL: metribuzin signal of mutant divided by the signal of w/t bx9” value worked out at 1.05, the “luminescence signal in the DMSO control” value is 3.29E+05 and the “luminescence signal observed” value is 2.94E+05.

B6: A236G: additional mutation in SEQ ID No: 17 (protein)
chain: MASSRTGAGAGGRVVVFPFPFQGHFNPVMRLARALHARGLAITVFHSGALDPADYPADYRFVPVTVEADPKLLASEDIAAIVTTLNASCDAPFRARLSALLAAEGRDSVRCVFTDVVWNAVLTASSDLGVPALGMMTASAASLRDYMAYRTLIDKGYLPVKEERKEDPVPELPPYLVKDLLRVDTSDLEEFAELLARTVTAARRASGLIFNTFPLIETDTLAEIHKALSVPVFAVGPLNKLVPTATASLHGVVQADRGCLQWLDTQQPGSVLYVSFGSFAAMDPHEFVELAWGLADSKRPFVWVVRPNLIRGFESGALPDGVEDEVRGRGIVVKWAPQEEVLAHPAVGGFLTHNGWNSTVEAISEGVPMVCCPRHGDQFGNMRYVCDVWKVGTELVGEQLERGQVKAAIDRLFGTKEGEEIKERMKEFKIAAAKGIGIGVDVDETASPRTDLTDLVDLIKSF
modifications: Mutated Zea mays Bx9 protein sequence
B6: in experiment [1], the “metribuzin signal relative to the SEQ ID No:17 control (first parentheses)” value stood at 4.0 and the “ratio of metribuzin to DMSO signal” value was 1.15.

B7: A334P (protein)
chain: MASSRTGAGAGGRVVVFPFPFQGHFNPVMRLARALHARGLAITVFHSGALDPADYPADYRFVPVTVEADPKLLASEDIAAIVTTLNASCDAPFRARLSALLAAEGRDSVRCVFTDVSWNAVLTASSDLGVPALGMMTASAASLRDYMAYRTLIDKGYLPVKEERKEDPVPELPPYLVKDLLRVDTSDLEEFAELLARTVTAARRASGLIFNTFPLIETDTLAEIHKALSVPVFAVAPLNKLVPTATASLHGVVQADRGCLQWLDTQQPGSVLYVSFGSMAAMDPHEFVELAWGLADSKRPFVWVVRPNLIRGFESGALPDGVEDEVRGRGIVVPWAPQEEVLAHPAVGGFLTHNGWNSTVEAISEGVPMVCCPRHGDQFGNMRYVCDVWKVGTELVGEQLERGQVKAAIDRLFGTKEGEEIKERMKEFKIAAAKGIGIGVDVDETASPRTDLTDLVDLIKSF
modifications: Zea mays
Turning to B7, in experiment [2], the “RATIO of the metribuzin signal” value came to 0.88, the “SIGNAL: metribuzin signal of mutant divided by the signal of w/t bx9” value was 1.24, the “luminescence signal in the DMSO control” value is reported as 3.97E+05 and the “luminescence signal observed” value came to 3.48E+05.
